This note sets out measurements from patent publication US11931423B2, “Glucose oxidase-nanoparticle bioconjugates for cancer treatment” (UNIVERSITY OF PITTSBURGH—OF THE COMMONWEALTH SYSTEM OF …, priority 2017, dated 2024).

One data set concerns ROS. Briefly: TMB-based ROS activity assay. The data set is classed as biochemical. As to conditions: in the presence of glucose, 37° C., 2 h, pH 4. The text has this: Production of ROS by the GOx-SPION bioconjugate was characterized by using a color agent 3,3′,5,5′-tetramethylbenzidine (TMB). TMB is known to be able to produce a blue color in the presence of ROS, which can be quantified by measuring the absorption at the wavelength of 650 nm. As a comparison, the levels of ROS produced by GOx and SPION alone, a mixture of GOx and SPION without conjugation, as well as the mAb-GOx-SPION bioconjugate were characterized.
The TMB-based ROS activity assay was carried out by using the following process. 20 μL SPION (5.0 mg/mL), GOx (1.0 mg/mL), a mixture of GOx (0.5 mg/mL) and SPION (2.5 mg/mL) without conjugation, GOx-SPION (5.0 mg/mL), and mAb-GOx-SPION (5.0 mg/mL) were each added into 380 μL of reaction buffer (0.1 M NaAc, pH 4, 50 μg TMB), followed by addition of either 100 μL of 100 mM glucose or 100 μL of DiH2O. After the mixtures were incubated at 37° C. for 2 h, the color change was detected with a Hitachi UV-Vis spectrophotometer.

The subject of a further data set is 4T1 cells. The experiment in a line: In vivo therapeutic efficacy in 4T1 tumor-bearing mice. As to conditions: for tumor growth (relative tumor volume): 4T1 tumors, single tail vein injection, 21 days, SPION-GOx 5 mg/kg, SPION 5 mg/kg, GOx 8.5 nmol/kg. The protocol:
4T1 cells (2×10^5 cell/mouse) were implanted subcutaneously into the right shoulders of female balb/c mice (˜20 g). In vivo therapeutic efficacy experiments were performed when the tumor reached 6˜8 mm in average diameter (10 days after implant). 3-5 mice were randomly assigned to 4 groups, to which the following agents were administered via tail vein injection: Group A were administered with a mixture of unconjugated SPION and GOx at the dosage of 5 mg/kg and 8.5 nmol/kg respectively; Group B were administered with GOx at the dosage of 8.5 nmol/kg; Group C were administered with 200 μL saline as control; and Group D were administered with a single dose of 5 mg/mL SPION-GOx in saline at a dosage of 5 mg/kg. All the administration was made at about the same time of the day. The size and size distribution of SPION-GOx bioconjugates were determined using DLS before injection to ensure the conjugation was complete and no precipitation was formed in the suspension. The SPION-GOx PBS solution to be used on animal study was tested using a TMB assay to verify the effective generation of ROS. The weight and health conditions of the mice were monitored daily. The tumor sizes were measured and recorded every other day in the first 12 days, and then every 3 days until 21 days post injection, at which time point the tumors were harvested. The volumes of the tumors were calculated by the following equation: V=L×W^2/2.

Data set [1] relates to 4T1 breast cancer xenografts. The experiment in a line: Biodistribution in mice with 4T1 breast cancer xenografts. As to conditions: 150 μg, mice with 4T1 xenografts, 1 day after injection. It is filed as in vivo. How it is done: To visualize the biodistribution of GOx-SPION within mouse models, GOx-SPION was tagged with a fluorescent dye (Cy7 moiety). 150 μg of the resulting SPION-GOx-Cy7 bioconjugate was administered to 5 mice having 4T1 breast cancer xenografts. The biodistribution of the bioconjugates was imaged at 1 day, 3 days, 4 days, 5 days, 6 days, and 7 days after injection (see FIGS. 12A-12B).

B1: glucose oxidase (protein, UniProt P13006 17-605, looked up)
Glucose oxidase: LPHYIRSNGIEASLLTDPKDVSGRTVDYIIAGGGLTGLTTAARLTENPNISVLVIESGSYESDRGPIIEDLNAYGDIFGSSVDHAYETVELATNNQTALIRSGNGLGGSTLVNGGTWTRPHKAQVDSWETVFGNEGWNWDNVAAYSLQAERARAPNAKQIAAGHYFNASCHGVNGTVHAGPRDTGDDYSPIVKALMSAVEDRGVPTKKDFGCGDPHGVSMFPNTLHEDQVRSDAAREWLLPNYQRPNLQVLTGQYVGKVLLSQNGTTPRAVGVEFGTHKGNTHNVYAKHEVLLAAGSAVSPTILEYSGIGMKSILEPLGIDTVVDLPVGLNLQDQTTATVRSRITSAGAGQGQAAWFATFNETFGDYSEKAHELLNTKLEQWAEEAVARGGFHNTTALLIQYENYRDWIVNHNVAYSELFLDTAGVASFDVWDLLPFTRGYVHILDKDPYLHHFAYDPQYFLNELDLLGQAAATQLARNISNSGAMQTYFAGETIPGDNLAYDADLSAWTEYIPYHFRPNYHGVGTCSMMPKEMGGVVDNAARVYGVQGLRVIDGSIPPTQMSSHVMTVFYAMALKISDAILEDYASMQ
Regarding B1, the “production of ROS (peak height at 650 nm, TMB)” value in the data set on ROS is given as “neither GOx nor SPION alone is able to produce ROS”. For the same molecule, in the data set on 4T1 cells, the “tumor growth (relative tumor volume)” value was “inhibited tumor growth to a much lesser extent”.

B2: GOx-SPION: glucose oxidase conjugated to superparamagnetic iron oxide nanoparticle via Tz/TCO bioorthogonal ligation (conjugate, UniProt P13006 17-605, looked up)
Glucose oxidase: B1 Glucose oxidase
modifications: superparamagnetic iron oxide nanoparticle
On to B2, for which the “production of ROS (peak height at 650 nm, TMB)” value in the data set with ROS was “synergistic activity between conjugated GOx and SPION”. Moreover, the “side effects (weight loss or death)” value in the data set with 4T1 cells (4T1 tumor mice, 5 mg/kg tail vein) is on record as “no severe side effects”. In addition, the “tumor growth (relative tumor volume)” value with 4T1 cells is listed as “significant slowdown of tumor growth”. In the data set on 4T1 cells (mouse, in vivo, 5 mg/kg), the “body weight loss during treatment” value is given as “did not experience any significant body weight loss”.

B3: SPION-GOx-Cy7: GOx-SPION tagged with a fluorescent dye (Cy7 moiety) (conjugate, UniProt P13006 17-605, looked up)
Glucose oxidase: B1 Glucose oxidase
modifications: SPION conjugate, Cy7 dye
As for B3, the “biodistribution (uptake)” value in data set [1] is recorded as “initial uptake of the bioconjugates was to tumor cells”.
